According to paper PMC2646509:

Target: T1, PrfA L140F L140F (Listeria monocytogenes (NF-L1166)) (UniProt P22262)
T1 sequence: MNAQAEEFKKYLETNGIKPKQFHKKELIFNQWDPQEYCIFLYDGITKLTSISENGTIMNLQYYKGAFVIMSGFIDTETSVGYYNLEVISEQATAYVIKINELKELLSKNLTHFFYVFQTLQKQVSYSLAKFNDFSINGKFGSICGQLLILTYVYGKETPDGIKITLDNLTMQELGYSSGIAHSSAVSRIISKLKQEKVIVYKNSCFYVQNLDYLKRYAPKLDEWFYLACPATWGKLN
Test: EMSA

**Q.** “GATGCTTCTAAAAAAGTTGCTGAAGCTTGGGAAGCAGTTGGGGTTAACTGATTAACAAATGTTAGAGAAAAATTAATTCTCCAAGTGATATTCTTAAAATAATTCATGAATA (double strand) [actA promoter]” was tested. Which binding did it give?
**A.** binds
